Assay results: publication PMC3214075

T1: 14-3-3, P63104
T1 chain: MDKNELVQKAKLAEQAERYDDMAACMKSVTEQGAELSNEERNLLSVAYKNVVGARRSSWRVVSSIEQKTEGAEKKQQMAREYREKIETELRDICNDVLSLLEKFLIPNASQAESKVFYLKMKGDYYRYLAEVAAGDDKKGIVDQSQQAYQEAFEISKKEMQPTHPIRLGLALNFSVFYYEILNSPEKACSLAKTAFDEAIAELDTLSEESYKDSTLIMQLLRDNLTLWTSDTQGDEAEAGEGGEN


Target: T1, 14-3-3, P63104
Assay: GST pull-down, Western blot densitometry
Conditions: chain shown with the change; 293T cell extracts, glutathione beads; two blots quantified; parent: est. 1.5; read off a plot

| Binder | response (IB:14-3-3/total 14-3-3) |
| --- | --- |
| GST-BAD wild type, full length (pEBG-BAD), Q61337 S111A; S112A (protein) MGTPKQPSLAPAHALGLRKSDPGIRSLGSDAGGRRWRPAAQSMFQIPEFEPSEQEDASATDRGLGPSLTEDQPGPYLAPGLLGSNIHQQGRAATNSHHGGAGAMETRSRHAAYPAGTEEDEGMEEELSPFRGRSRSAPPNLWAAQRYGRELRRMSDEFEGSFKGLPRPKSAGTATQMRQSAGWTRIIQSWWDRNLGKGGSTPSQ | 1.9 |
| GST-BAD wild type, full length (pEBG-BAD), Q61337 S111A; S112A; S136A (protein) MGTPKQPSLAPAHALGLRKSDPGIRSLGSDAGGRRWRPAAQSMFQIPEFEPSEQEDASATDRGLGPSLTEDQPGPYLAPGLLGSNIHQQGRAATNSHHGGAGAMETRSRHAAYPAGTEEDEGMEEELSPFRGRSRAAPPNLWAAQRYGRELRRMSDEFEGSFKGLPRPKSAGTATQMRQSAGWTRIIQSWWDRNLGKGGSTPSQ | 0.22 |
| GST-BAD wild type, full length (pEBG-BAD), Q61337 S111A (protein) MGTPKQPSLAPAHALGLRKSDPGIRSLGSDAGGRRWRPAAQSMFQIPEFEPSEQEDASATDRGLGPSLTEDQPGPYLAPGLLGSNIHQQGRAATNSHHGGAGAMETRSRHASYPAGTEEDEGMEEELSPFRGRSRSAPPNLWAAQRYGRELRRMSDEFEGSFKGLPRPKSAGTATQMRQSAGWTRIIQSWWDRNLGKGGSTPSQ | 1.7 |
| GST-BAD wild type, full length (pEBG-BAD), Q61337 S111A; S136A (protein) MGTPKQPSLAPAHALGLRKSDPGIRSLGSDAGGRRWRPAAQSMFQIPEFEPSEQEDASATDRGLGPSLTEDQPGPYLAPGLLGSNIHQQGRAATNSHHGGAGAMETRSRHASYPAGTEEDEGMEEELSPFRGRSRAAPPNLWAAQRYGRELRRMSDEFEGSFKGLPRPKSAGTATQMRQSAGWTRIIQSWWDRNLGKGGSTPSQ | 0.2 |

The next lines start with the values.

| response (IB:14-3-3/total 14-3-3) | Binder |
| --- | --- |
| 0.19 | GST-BAD wild type, full length (pEBG-BAD), Q61337 S112A; S136A (protein) MGTPKQPSLAPAHALGLRKSDPGIRSLGSDAGGRRWRPAAQSMFQIPEFEPSEQEDASATDRGLGPSLTEDQPGPYLAPGLLGSNIHQQGRAATNSHHGGAGAMETRSRHSAYPAGTEEDEGMEEELSPFRGRSRAAPPNLWAAQRYGRELRRMSDEFEGSFKGLPRPKSAGTATQMRQSAGWTRIIQSWWDRNLGKGGSTPSQ |
| 0.17 | GST-BAD wild type, full length (pEBG-BAD), Q61337 S136A (protein) MGTPKQPSLAPAHALGLRKSDPGIRSLGSDAGGRRWRPAAQSMFQIPEFEPSEQEDASATDRGLGPSLTEDQPGPYLAPGLLGSNIHQQGRAATNSHHGGAGAMETRSRHSSYPAGTEEDEGMEEELSPFRGRSRAAPPNLWAAQRYGRELRRMSDEFEGSFKGLPRPKSAGTATQMRQSAGWTRIIQSWWDRNLGKGGSTPSQ |
| 1.8 | GST-BAD wild type, full length (pEBG-BAD), Q61337 S112A (protein) MGTPKQPSLAPAHALGLRKSDPGIRSLGSDAGGRRWRPAAQSMFQIPEFEPSEQEDASATDRGLGPSLTEDQPGPYLAPGLLGSNIHQQGRAATNSHHGGAGAMETRSRHSAYPAGTEEDEGMEEELSPFRGRSRSAPPNLWAAQRYGRELRRMSDEFEGSFKGLPRPKSAGTATQMRQSAGWTRIIQSWWDRNLGKGGSTPSQ |
